Where no end group is shown, it is not given here. [ ]: non-standard residue; d: D form.
Experiments:
Experiment in all cases: cell-based or functional assay
[1] = target: Nav1.2 (rBIIa) (rat (printed only as rBIIa)) (UniProt P04775)
[2] = target: human Nav1.7 alpha-subunit (human) (UniProt Q15858)
[3] = target: Nav1.2 (rBIIa) (rat (printed only as rBIIa)), P04775
[4] = target: human Nav1.7 alpha-subunit (human), Q15858
Chain of human Nav1.7 alpha-subunit (human), Q15858 (Q15858 whole entry): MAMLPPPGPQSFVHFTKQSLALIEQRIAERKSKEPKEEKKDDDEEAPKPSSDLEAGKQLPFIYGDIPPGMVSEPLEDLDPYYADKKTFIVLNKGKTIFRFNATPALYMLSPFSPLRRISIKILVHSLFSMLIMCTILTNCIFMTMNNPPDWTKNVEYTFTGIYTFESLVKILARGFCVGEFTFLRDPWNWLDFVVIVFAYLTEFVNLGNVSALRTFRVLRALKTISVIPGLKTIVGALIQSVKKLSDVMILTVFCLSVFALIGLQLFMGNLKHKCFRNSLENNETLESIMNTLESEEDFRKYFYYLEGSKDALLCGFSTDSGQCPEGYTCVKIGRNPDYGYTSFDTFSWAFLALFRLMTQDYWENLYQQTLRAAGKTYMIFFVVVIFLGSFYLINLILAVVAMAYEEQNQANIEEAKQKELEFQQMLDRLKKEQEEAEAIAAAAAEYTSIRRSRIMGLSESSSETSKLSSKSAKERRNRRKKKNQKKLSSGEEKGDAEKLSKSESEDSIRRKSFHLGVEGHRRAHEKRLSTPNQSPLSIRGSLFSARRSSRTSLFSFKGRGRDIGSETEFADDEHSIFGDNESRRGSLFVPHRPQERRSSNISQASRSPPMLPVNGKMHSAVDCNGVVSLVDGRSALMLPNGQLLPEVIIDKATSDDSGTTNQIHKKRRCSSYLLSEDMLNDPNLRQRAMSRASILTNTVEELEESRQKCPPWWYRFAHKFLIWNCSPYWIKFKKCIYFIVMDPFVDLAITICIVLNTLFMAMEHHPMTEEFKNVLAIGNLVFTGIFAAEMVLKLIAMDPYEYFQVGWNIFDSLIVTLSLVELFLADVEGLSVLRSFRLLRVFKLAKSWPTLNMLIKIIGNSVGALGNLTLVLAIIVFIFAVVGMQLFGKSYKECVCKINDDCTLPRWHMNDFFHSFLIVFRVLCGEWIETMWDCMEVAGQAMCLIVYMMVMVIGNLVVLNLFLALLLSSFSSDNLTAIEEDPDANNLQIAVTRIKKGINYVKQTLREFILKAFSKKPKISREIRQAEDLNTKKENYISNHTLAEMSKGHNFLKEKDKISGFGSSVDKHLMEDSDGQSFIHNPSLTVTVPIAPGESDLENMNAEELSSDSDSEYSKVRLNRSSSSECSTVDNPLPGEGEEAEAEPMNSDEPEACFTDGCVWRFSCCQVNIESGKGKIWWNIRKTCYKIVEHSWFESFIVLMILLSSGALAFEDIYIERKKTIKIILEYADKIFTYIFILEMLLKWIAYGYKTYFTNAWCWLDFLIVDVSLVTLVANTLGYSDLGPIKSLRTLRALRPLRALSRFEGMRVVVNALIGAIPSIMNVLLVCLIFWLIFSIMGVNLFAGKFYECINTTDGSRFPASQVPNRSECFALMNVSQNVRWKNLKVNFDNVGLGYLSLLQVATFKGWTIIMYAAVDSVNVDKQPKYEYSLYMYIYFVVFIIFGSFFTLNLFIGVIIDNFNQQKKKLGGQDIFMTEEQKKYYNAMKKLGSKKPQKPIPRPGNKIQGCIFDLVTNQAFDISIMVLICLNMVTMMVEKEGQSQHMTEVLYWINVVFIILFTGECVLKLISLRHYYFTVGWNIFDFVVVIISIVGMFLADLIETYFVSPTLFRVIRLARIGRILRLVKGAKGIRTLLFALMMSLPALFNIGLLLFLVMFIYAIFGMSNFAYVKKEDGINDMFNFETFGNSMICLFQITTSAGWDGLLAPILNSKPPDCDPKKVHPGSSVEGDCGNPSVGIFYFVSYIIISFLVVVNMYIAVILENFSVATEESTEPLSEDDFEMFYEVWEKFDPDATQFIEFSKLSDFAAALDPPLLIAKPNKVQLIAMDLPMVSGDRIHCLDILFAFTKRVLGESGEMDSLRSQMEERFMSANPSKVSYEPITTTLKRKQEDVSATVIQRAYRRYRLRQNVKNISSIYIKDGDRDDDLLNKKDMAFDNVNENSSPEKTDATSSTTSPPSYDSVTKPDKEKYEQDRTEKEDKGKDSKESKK

Chain of Nav1.2 (rBIIa) (rat (printed only as rBIIa)) (P04775 whole entry): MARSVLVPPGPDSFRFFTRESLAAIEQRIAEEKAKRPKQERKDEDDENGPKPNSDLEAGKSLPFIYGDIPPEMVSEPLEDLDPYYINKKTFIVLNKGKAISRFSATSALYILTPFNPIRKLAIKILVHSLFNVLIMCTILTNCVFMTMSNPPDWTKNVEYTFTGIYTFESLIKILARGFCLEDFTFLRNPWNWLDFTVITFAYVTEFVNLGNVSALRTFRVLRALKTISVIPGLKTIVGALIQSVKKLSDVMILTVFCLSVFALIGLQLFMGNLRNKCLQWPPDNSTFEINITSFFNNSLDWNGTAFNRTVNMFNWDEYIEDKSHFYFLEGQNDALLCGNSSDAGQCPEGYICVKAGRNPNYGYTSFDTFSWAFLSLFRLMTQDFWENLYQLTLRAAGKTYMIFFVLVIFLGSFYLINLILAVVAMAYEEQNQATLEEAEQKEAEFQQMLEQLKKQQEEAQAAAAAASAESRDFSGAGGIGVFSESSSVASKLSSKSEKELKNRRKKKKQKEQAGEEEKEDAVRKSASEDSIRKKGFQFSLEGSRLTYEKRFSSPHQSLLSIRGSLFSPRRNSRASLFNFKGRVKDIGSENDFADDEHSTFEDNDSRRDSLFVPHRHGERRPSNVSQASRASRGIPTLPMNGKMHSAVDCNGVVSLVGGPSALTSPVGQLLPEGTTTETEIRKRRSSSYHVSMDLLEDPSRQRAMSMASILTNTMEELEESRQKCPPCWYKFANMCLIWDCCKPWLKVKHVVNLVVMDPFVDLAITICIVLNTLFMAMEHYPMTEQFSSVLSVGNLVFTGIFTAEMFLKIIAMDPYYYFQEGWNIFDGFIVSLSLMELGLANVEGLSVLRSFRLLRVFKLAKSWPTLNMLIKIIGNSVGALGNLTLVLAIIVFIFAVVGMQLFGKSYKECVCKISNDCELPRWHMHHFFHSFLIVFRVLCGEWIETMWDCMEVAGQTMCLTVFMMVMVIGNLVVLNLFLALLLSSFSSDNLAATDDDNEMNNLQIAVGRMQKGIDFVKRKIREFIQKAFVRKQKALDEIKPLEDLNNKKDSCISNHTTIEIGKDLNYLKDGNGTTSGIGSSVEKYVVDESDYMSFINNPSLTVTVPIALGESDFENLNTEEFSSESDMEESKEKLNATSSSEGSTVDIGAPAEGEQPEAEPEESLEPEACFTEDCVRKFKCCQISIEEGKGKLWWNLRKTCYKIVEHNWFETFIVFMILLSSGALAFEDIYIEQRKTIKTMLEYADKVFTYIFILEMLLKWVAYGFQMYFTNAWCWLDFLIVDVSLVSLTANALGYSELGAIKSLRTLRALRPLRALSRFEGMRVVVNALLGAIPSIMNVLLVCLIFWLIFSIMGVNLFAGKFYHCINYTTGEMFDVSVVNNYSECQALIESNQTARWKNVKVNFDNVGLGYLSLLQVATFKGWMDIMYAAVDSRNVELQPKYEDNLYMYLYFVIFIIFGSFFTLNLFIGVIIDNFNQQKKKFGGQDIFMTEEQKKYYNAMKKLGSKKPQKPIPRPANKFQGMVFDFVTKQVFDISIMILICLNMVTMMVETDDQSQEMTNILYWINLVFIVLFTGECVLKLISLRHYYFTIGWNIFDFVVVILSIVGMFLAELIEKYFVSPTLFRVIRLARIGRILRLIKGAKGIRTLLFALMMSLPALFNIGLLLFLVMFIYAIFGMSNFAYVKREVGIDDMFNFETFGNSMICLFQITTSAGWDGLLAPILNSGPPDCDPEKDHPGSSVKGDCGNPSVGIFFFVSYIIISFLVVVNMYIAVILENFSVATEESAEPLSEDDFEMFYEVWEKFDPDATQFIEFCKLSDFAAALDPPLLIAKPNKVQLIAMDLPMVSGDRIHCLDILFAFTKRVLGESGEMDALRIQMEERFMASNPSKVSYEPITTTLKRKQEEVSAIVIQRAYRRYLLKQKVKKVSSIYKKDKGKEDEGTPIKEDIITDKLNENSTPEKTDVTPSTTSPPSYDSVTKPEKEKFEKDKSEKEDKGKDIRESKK
Chain of Nav1.2 (rBIIa) (rat (printed only as rBIIa)), P04775 (P04775 whole entry): as above
Chain of human Nav1.7 alpha-subunit (human) (Q15858 whole entry): as the sequence (Q15858 whole entry) above

| Molecule | Nav1.2 IC50 (nM), EP (electrophysiology) sodium channel blocking activity [1] [nM] | Nav1.2 IC50 (nM), FLIPR sodium channel blocking activity [1] [nM] | Nav1.7 IC50 (nM), FLIPR sodium channel blocking activity [2] [nM] | Nav1.2 IC50 (nM), FLIPR sodium channel blocking activity [3] [nM] | Nav1.7 IC50 (nM), FLIPR sodium channel blocking activity [4] [nM] |
| --- | --- | --- | --- | --- | --- |
| Protoxin II (peptide) | 100 | 379 |  |  |  |
| YCQKWMWTCDSERKCCEGMVCRLWCKKKLWW (not fully specified; ends and bridges not checked) [Protoxin II-D-Trp] |  | 102 | 16.5 |  |  |
| YCQKWMWTCDSERKCCEGMVCRLWCKKKL[dW]-NHcyclohexyl (ends and bridges not checked) [Protoxin II (D)-NHcyclohexyl] |  |  |  | 336 | 31 |
